From the RNAGym collection of RNA variant scans (doi:10.1093/molbev/msab373)

B1: Azoarcus group I ribozyme (parent)
chain: GUGCCUUGCGCCGGGAAACCACGCAAGGGAUGGUGUCAAAUUCGGCGAAACCUAAGCGCCCGCCCGGGCGUAUGGCAACGCCGAGCCAAGCUUCGGCGCCUGCGCCGAUGAAGGUGUAGAGACUAGACGGCACCCACCUAAGGCAAACGCUAUGGUGAAGGCAUAGUCCAGGGAGUGGCGAAAGUCACACAAACCGG

Variants of: B1
Test: reverse-splicing fitness (ratio to wild type); higher = more active; in vitro selection; Mg2+ level not given
Outline: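 An in vitro group I ribozyme library with randomized positions was T7-transcribed and gel-purified. In triplicate, 10 pmol RNA in EPPS pH 7.5 was reacted with 50 pmoles of a 30-nt RNA substrate for 1 h at 37 °C across several added MgCl2 levels (1–48 mM), then stopped with EDTA. Products were reverse transcribed from a substrate-complementary primer, PCR-amplified and sequenced (HiSeq 4000). Fitness is a variant's read proportion after selection over that before, normalised to wild type.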

**Q.** Which reverse-splicing fitness does the source give for GUGCCUUGCGCCGGGAAACCACGCAAGGGAUGGUGUCAAAUUCGGCGAAACCUAAGCGCCCGCCCGGGCGUAUGGCAACGCUGAGCCAAGCUUCGGCGCCUGCGCCGAUGGAGGUGUAGUGACUAGACGGCACCCACCUAAGGCAAACGGUAUGGUGAAGGCAUAGUCCAGGGAGUGGCGAAAGUCACACAAACCGG [C82U A111G A120U C150G] here?
**A.** Its reverse-splicing fitness is 0.00763.

**Q.** For GUGCCUUGCGCCGGGAAACCACGCAAGGGAUGGUGUCAAAUUCGGCGAAACCUAAGCGCCCGCCCGGGCGUAUGGCAACGCUGAGCCAAGCUUCGGCGCCUGCGCCGAUGGAGGUGUAGUGACUAGACGGCACCCACCUAAGGCAAACGGUAUGGUGAAGGCAUAGUCUAGGGAGAGGCGAAAGUCACACAAACCGG [C82U A111G A120U C150G C169U U176A], which reverse-splicing fitness is on record?
**A.** Its reverse-splicing fitness is 0.00387.

**Q.** For GUGCCUUGCGCCGGGAAACCACGCAAGGGAUGGUGUCAAAUUCGGCGAAACCUAAGCGCCCGCCCGGGCGUAUGGCAACGCUGAGCCAAGCUUCGGCGCCUGCGCCGAUGGAGGUGUAGUGACUAGACGGCACCCACCUAAGGCAAACGAUAUGGUGAAGGCAUAGUCCAGGGAGGGGCGAAAGUCACACAAACCGG [C82U A111G A120U C150A U176G], which reverse-splicing fitness is on record?
**A.** The reverse-splicing fitness was 0.00238.

**Q.** For GUGCCUUGCGCCGGGAAACCACGCAAGGGAUGGUGUCAAAUUCGGCGAAACCUAAGCGCCCGCCCGGGCGUAUGGCAACGCUGAGCCAAGCUUCGGCGCCUGCGCCGAUGGAGGUGUAGUGACUAGACGGCACCCACCUAAGGCAAACGAUAUGGUGAAGGCAUAGUCCAGGGAGCGGCGAAAGUCACACAAACCGG [C82U A111G A120U C150A U176C], which reverse-splicing fitness is on record?
**A.** The reverse-splicing fitness was 0.00592.

**Q.** With GUGCCUUGCGCCGGGAAACCACGCAAGGGAUGGUGUCAAAUUCGGCGAAACCUAAGCGCCCGCCCGGGCGUAUGGCAACGCUGAGCCAAGCUUCGGCGCCUGCGCCGAUGGAGGUGUAGUGACUAGACGGCACCCACCUAAGGCAAACGAUAUGGUGAAGGCAUAGUCCAGGGAGAGGCGAAAGUCACACAAACCGG [C82U A111G A120U C150A U176A] as the variant, how does the reverse-splicing fitness read?
**A.** The reverse-splicing fitness was 0.00587.

**Q.** For GUGCCUUGCGCCGGGAAACCACGCAAGGGAUGGUGUCAAAUUCGGCGAAACCUAAGCGCCCGCCCGGGCGUAUGGCAACGCUGAGCCAAGCUUCGGCGCCUGCGCCGAUGGAGGUGUAGUGACUAGACGGCACCCACCUAAGGCAAACGGUAUGGUGAAGGCAUAGUCGAGGGAGUGGCGAAAGUCACACAAACCGG [C82U A111G A120U C150G C169G], which reverse-splicing fitness is on record?
**A.** The reverse-splicing fitness was 0.00572.

**Q.** Which reverse-splicing fitness does the source give for GUGCCUUGCGCCGGGAAACCACGCAAGGGAUGGUGUCAAAUUCGGCGAAACCUAAGCGCCCGCCCGGGCGUAUGGCAACGCUGAGCCAAGCUUCGGCGCCUGCGCCGAUGGAGGUGUAGUGACUAGACGGCACCCACCUAAGGCAAACGGUAUGGUGAAGGCAUAGUCUAGGGAGUGGCGAAAGUCACACAAACCGG [C82U A111G A120U C150G C169U] here?
**A.** Its reverse-splicing fitness is 0.004.

**Q.** Which reverse-splicing fitness does the source give for GUGCCUUGCGCCGGGAAACCACGCAAGGGAUGGUGUCAAAUUCGGCGAAACCUAAGCGCCCGCCCGGGCGUAUGGCAACGCUGAGCCAAGCUUCGGCGCCUGCGCCGAUGGAGGUGUAGUGACUAGACGGCACCCACCUAAGGCAAACGGUAUGGUGAAGGCAUAGUCAAGGGAGUGGCGAAAGUCACACAAACCGG [C82U A111G A120U C150G C169A] here?
**A.** The reverse-splicing fitness was 0.00636.

**Q.** With GUGCCUUGCGCCGGGAAACCACGCAAGGGAUGGUGUCAAAUUCGGCGAAACCUAAGCGCCCGCCCGGGCGUAUGGCAACGCUGAGCCAAGCUUCGGCGCCUGCGCCGAUGGAGGUGUAGUGACUAGACGGCACCCACCUAAGGCAAACGGUAUGGUGAAGGCAUAGUCGAGGGAGCGGCGAAAGUCACACAAACCGG [C82U A111G A120U C150G C169G U176C] as the variant, how does the reverse-splicing fitness read?
**A.** Its reverse-splicing fitness is 0.00318.

**Q.** Which reverse-splicing fitness does the source give for GUGCCUUGCGCCGGGAAACCACGCAAGGGAUGGUGUCAAAUUCGGCGAAACCUAAGCGCCCGCCCGGGCGUAUGGCAACGCUGAGCCAAGCUUCGGCGCCUGCGCCGAUGGAGGUGUAGUGACUAGACGGCACCCACCUAAGGCAAACGGUAUGGUGAAGGCAUAGUCGAGGGAGAGGCGAAAGUCACACAAACCGG [C82U A111G A120U C150G C169G U176A] here?
**A.** The reverse-splicing fitness was 0.00513.

**Q.** Which reverse-splicing fitness does the source give for GUGCCUUGCGCCGGGAAACCACGCAAGGGAUGGUGUCAAAUUCGGCGAAACCUAAGCGCCCGCCCGGGCGUAUGGCAACGCUGAGCCAAGCUUCGGCGCCUGCGCCGAUGGAGGUGUAGUGACUAGACGGCACCCACCUAAGGCAAACGGUAUGGUGAAGGCAUAGUCGAGGGAGGGGCGAAAGUCACACAAACCGG [C82U A111G A120U C150G C169G U176G] here?
**A.** Its reverse-splicing fitness is 0.0022.

**Q.** Which reverse-splicing fitness does the source give for GUGCCUUGCGCCGGGAAACCACGCAAGGGAUGGUGUCAAAUUCGGCGAAACCUAAGCGCCCGCCCGGGCGUAUGGCAACGCUGAGCCAAGCUUCGGCGCCUGCGCCGAUGGAGGUGUAGUGACUAGACGGCACCCACCUAAGGCAAACGAUAUGGUGAAGGCAUAGUCUAGGGAGGGGCGAAAGUCACACAAACCGG [C82U A111G A120U C150A C169U U176G] here?
**A.** Its reverse-splicing fitness is 0.00202.

**Q.** For GUGCCUUGCGCCGGGAAACCACGCAAGGGAUGGUGUCAAAUUCGGCGAAACCUAAGCGCCCGCCCGGGCGUAUGGCAACGCUGAGCCAAGCUUCGGCGCCUGCGCCGAUGGAGGUGUAGUGACUAGACGGCACCCACCUAAGGCAAACGGUAUGGUGAAGGCAUAGUCAAGGGAGAGGCGAAAGUCACACAAACCGG [C82U A111G A120U C150G C169A U176A], which reverse-splicing fitness is on record?
**A.** Its reverse-splicing fitness is 0.00509.

**Q.** Which reverse-splicing fitness does the source give for GUGCCUUGCGCCGGGAAACCACGCAAGGGAUGGUGUCAAAUUCGGCGAAACCUAAGCGCCCGCCCGGGCGUAUGGCAACGCUGAGCCAAGCUUCGGCGCCUGCGCCGAUGGAGGUGUAGUGACUAGACGGCACCCACCUAAGGCAAACGGUAUGGUGAAGGCAUAGUCAAGGGAGCGGCGAAAGUCACACAAACCGG [C82U A111G A120U C150G C169A U176C] here?
**A.** The reverse-splicing fitness was 0.00364.

**Q.** Which reverse-splicing fitness does the source give for GUGCCUUGCGCCGGGAAACCACGCAAGGGAUGGUGUCAAAUUCGGCGAAACCUAAGCGCCCGCCCGGGCGUAUGGCAACGCUGAGCCAAGCUUCGGCGCCUGCGCCGAUGGAGGUGUAGUGACUAGACGGCACCCACCUAAGGCAAACGGUAUGGUGAAGGCAUAGUCAAGGGAGGGGCGAAAGUCACACAAACCGG [C82U A111G A120U C150G C169A U176G] here?
**A.** Its reverse-splicing fitness is 0.00235.
